The source of these data is patent US7745109B2, “Regulation of cell growth by MUC1” (Dana-Farber Cancer Insitute, Inc., priority 2003, dated 2010).

The test deals with T1, MUC1-p120 complexes (Homo sapiens, UniProt O60716).
T1 sequence (O60716 1-968): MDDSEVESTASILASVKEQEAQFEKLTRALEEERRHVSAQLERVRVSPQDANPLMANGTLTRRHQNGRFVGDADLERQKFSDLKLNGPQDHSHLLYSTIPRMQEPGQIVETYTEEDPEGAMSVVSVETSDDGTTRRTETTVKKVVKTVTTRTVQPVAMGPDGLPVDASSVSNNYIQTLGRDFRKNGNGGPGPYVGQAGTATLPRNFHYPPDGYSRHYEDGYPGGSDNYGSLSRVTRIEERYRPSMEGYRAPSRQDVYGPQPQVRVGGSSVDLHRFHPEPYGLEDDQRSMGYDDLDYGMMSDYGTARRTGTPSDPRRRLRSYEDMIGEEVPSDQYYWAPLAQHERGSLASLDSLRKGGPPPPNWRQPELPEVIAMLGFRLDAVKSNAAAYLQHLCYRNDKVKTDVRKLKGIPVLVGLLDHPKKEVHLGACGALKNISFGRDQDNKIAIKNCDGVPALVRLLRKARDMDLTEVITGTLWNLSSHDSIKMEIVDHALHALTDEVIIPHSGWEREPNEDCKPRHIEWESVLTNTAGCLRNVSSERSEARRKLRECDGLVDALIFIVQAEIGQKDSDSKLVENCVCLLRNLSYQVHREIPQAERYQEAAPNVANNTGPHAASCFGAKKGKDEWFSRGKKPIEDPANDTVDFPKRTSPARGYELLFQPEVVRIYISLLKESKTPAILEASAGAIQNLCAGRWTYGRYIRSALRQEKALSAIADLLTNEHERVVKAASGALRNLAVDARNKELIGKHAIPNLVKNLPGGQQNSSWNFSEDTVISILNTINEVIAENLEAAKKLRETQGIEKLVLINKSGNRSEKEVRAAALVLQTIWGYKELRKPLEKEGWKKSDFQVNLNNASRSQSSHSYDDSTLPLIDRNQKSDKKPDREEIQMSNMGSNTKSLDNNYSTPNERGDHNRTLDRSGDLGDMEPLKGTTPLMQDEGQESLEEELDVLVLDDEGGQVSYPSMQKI
The test can be described thus: Inhibition of MUC1/CD binding to GST-p120 by peptides (glutathione bead precipitation, anti-MUC1/CD immunoblot). The following applies: peptide incubated with MUC1/CD and GST-p120; immunoblot with anti-MUC1/CD (FIG. 7C). The protocol:
FIG. 7C is a pair of photographs of immunoblots. In the table above the immunoblots is indicated the mixtures of MUC1/CD, GST-p120, and GST which were incubated in the absence of inhibitor peptide (first and fourth lanes of both immunoblots) or in the presence of either a peptide with the amino acid sequence […] (SEQ ID NO:7) or a peptide with the amino acid sequence […] (SEQ ID NO:8). The four mixtures were incubated with glutathione-Sepharose 4B™ beads and proteins precipitated by the beads were subjected to immunoblot analysis with anti-MUC1/CD (“IB: anti-MUC1/CD”) (top immunoblot) or anti-p120 (“IB: anti-p120”) ([…]). The positions of MUC1/CD and p120 on the immunoblots are indicated.
To identify the site in MUC1/CD that binds to p120, full-length MUC1/CD and the N- and C-terminal fragments (FIG. 7A) were incubated with purified GST-p120. […] To further localize the site, two peptides from the overlapping region were prepared. […] These findings indicate that p120 interacts with the […] site (SEQ ID NO:7) in MUC1.
Background: In western blotting, separated proteins are transferred to a membrane and probed.

As for “MSEYPTYHTH (listed as Homo sapiens) [peptide from the MUC1/CD region common to the N- and C-terminal fragments]”, the “inhibition of the formation of MUC1-p120 complexes” value was “inhibits the formation of MUC1-p120 complexes”.
